For assay [1], the target named is gp41 N-peptide (35-70). The assay is described as follows: CD thermal melting of the peptide complex, 20-95° C.
Assay [2] addresses gp41 N-peptide (35-70). Description: Superdex 75 gel filtration; free Fusonex elutes at 17.3 ml. In general terms: SEC sorts molecules by how far they enter the pores of the column.
In the next assay the target is HIV-1 gp160HXB (HIV-1, UniProt P04578 512-856). The assay is described as follows: cell-based or functional assay.
Sequence of HIV-1 gp160HXB (P04578 512-856): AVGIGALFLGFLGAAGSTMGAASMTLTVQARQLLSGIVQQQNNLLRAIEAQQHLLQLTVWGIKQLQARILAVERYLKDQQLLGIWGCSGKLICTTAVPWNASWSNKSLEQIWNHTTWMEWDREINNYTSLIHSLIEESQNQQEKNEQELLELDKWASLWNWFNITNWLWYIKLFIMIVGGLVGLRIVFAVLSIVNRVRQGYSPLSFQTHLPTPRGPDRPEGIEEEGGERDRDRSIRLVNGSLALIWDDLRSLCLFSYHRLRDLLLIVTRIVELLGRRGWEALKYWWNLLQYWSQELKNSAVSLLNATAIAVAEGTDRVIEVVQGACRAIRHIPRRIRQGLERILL

Sequence of gp41 N-peptide (35-70) (P04578 546-581): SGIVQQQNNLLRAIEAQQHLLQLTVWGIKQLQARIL

Consider Fusonex (peptide), for which the 50% melting temperature of the complex in the assay with gp41 N-peptide (35-70) [1] is 70 ° C. Besides, the elution peak of the complex in the assay with gp41 N-peptide (35-70) [2] was determined as 13.2 mL.

Take T-20 (peptide): in the assay with gp41 N-peptide (35-70) [1], the 50% melting temperature of the complex turned out to be 51 ° C.

Turning to Ac-SWETWEREIENYTKQIYKILEESQEQQDRNEKDLLE-NH2 [Fusonex], in the assay with HIV-1 gp160HXB, the “IC50, cell-cell fusion induced by HIV-1 gp160HXB (luciferase reporter)” value was 1.2 nM and the “IC50 relative to T-20, cell-cell fusion induced by HIV-1 gp160HXB” value is ~0.05 fold of T-20.

These data come from patent US20040248789A1 (TIANJIN FUSOGEN BIOTECH, published 2004).
